From PMC3230118

Target: Ub-NpuN fusion protein bearing the wild-type N-intein sequence (NpuNWT), C1A (not stated | Nostoc punctiforme) (UniProt P0CG48)
Test: other fluorescence titration

- Kd: 2.9 nM
Substance: NpuC-SUMO fusion protein bearing the wild-type C-intein sequence (NpuCWT) (domain or fragment)
